{
  "source": "patent US11857509B2",
  "about": "“Liposome compositions and methods of use thereof” (University of Rhode Island Board of Trustees, priority 2010, dated 2024)",
  "key": {"acidic tissues, tumors": {"system": "acidic tissues, tumors", "test": "In vivo fluorescence imaging of tissue and tumor targeting", "set-up": "species or system mice and rats", "excerpt": "The pH-dependent interaction of pHLIP with membranes allows selectivity in the targeting of acidic (less than pH 7.0) diseased tissue. As noted above, acidity and hypoxia are considered as universal cancer biomarkers, and pHLIP is used as an acidity-targeting probe. Besides cancer, many other pathological states, such as inflammation, ischemia, stroke, arthritis and others are characterized by acidity in the extracellular space, which may broaden the potential applications of pHLIP. […] In addition to fluorescence imaging, PET (positron emission tomography) imaging of the acidic environment in human prostate tumors was performed using ^64Cu-DOTA conjugated to pHLIP. […] To manipulate the acidity of tissues, a buffer solution is administered to the subject systemically or local to the area in which a pH change is desired. In this manner, pHLIP-liposome-mediated delivery of a cargo compound is regulated, e.g., reduced or stopped. For example, administering bicarbonated water, which increases tissue pH, results in a reduction of tumor targeting by pHLIP.\nThe transmembrane (TM) part of exemplary pHLIP peptides contain two Asp residues. […] The replacement of the key Asp residues by Lys, Ala or Asn leads to the loss of peptide of pH-dependent membrane insertion, as measured in liposomes, red blood cells and confirmed by in vivo fluorescence imaging. […]"}, "[1]": {"test": "Oligomeric state and aggregation of pHLIP in solution and on membranes", "type": "physicochemical", "experimental": "Poor solubility due to aggregation is a typical property of membrane peptides, which has complicated studies and applications. Isolated or purified pHLIP, as any membrane peptide, also has a tendency to aggregate, especially at high concentrations and/or low pH. However, in aqueous solution at neutral pH pHLIP exists as a monomer at concentrations less than 30 μg/mL (˜7.0 μM), as studied by fluorescence and CD spectroscopy measurements, size exclusion chromatography coupled with “on-line” laser light scattering, ultraviolet and refractive index detection (SEC-LS/UV/RI) and analytical ultracentrifugation experiments. When the solubility of the peptide is compromised as a result of mutations, the affinity of the peptide for a membrane and its overall conformational properties change. Thus, studies were undertaken to design pHLIP peptides that are optimized for clinical diagnostic and therapeutic use.\nThe oligomeric state of the peptide on the surface of a membrane (state II) and inserted into the lipid bilayer (state III) were evaluated by FRET performed with two different donor-acceptor probes attached to the N-terminus of the peptide."}, "[2]": {"conditions": "in vivo", "excerpt": "If the peptide sequence were made more hydrophobic, tighter binding to red blood cells and epithelial cells and more aggregation in solution, and slower clearance and reduced bioavailability would occur. Making the peptide less hydrophobic accelerates clearance and prevents the peptide from finding its targets. Therefore, fine tuning of the solubility is an important property to optimize pHLIP performance in vivo."}, "[3]": {"system": "liposomes and cellular membranes", "type": "cell-based", "excerpt": "Toxicity is one of the most critical issues in the selection of any delivery agent. For example, the use of pore-forming membrane peptides as delivery agents is complicated by the toxicity associated with the formation of pores in cellular membranes in vivo."}, "[4]": {"test": "pH-dependent membrane insertion of pHLIP peptides", "type": "physicochemical", "excerpt": "Peptide folding and membrane insertion are driven by a drop of pH from neutral or high (>7.4) to slightly acidic (7.0-6.5 and less) pHs. […] In contrast, all pore forming peptides first form aggregates on the membrane surface and then “fall” into membrane and form pores.\nThe transmembrane (TM) part of exemplary pHLIP peptides contain two Asp residues. At neutral pH these charged residues enhance peptide solubility and serve as anchors keeping the peptide at the surface of membrane, thereby preventing pHLIP partitioning into the hydrophobic membrane bilayer. A reduction of pH induces protonation of Asp residues, and as a result, the overall hydrophobicity of the peptide increases, enhancing the affinity of the peptide for the lipid bilayer core and triggering peptide folding and insertion. The replacement of the key Asp residues by Lys, Ala or Asn leads to the loss of peptide of pH-dependent membrane insertion, as measured in liposomes, red blood cells and confirmed by in vivo fluorescence imaging. […] The Ala substitutions yield a peptide that aggregates in solution (but de-aggregates when it becomes diluted in bodily fluids or tissue upon administration to a subject), while the Lys and Asn substitutions give peptides that are too polar to insert either at neutral or low pH. […]"}},
  "note": "“And” between values parts separate entries of the source, which are not always exact repeats. Equal entries are not always repeated.",
  "data": [
    {"substance": "K-pHLIP (ACEQNPIYWARYAKWLFTTPLLLLKLALLVDADEGTG; pHLIP variant)", "values": [
      {"measurement": "targeting of acidic tissue and tumors", "setting": "acidic tissues, tumors", "result": "does not demonstrate tumor targeting"}
    ]},
    {"substance": "pHLIP: water-soluble polypeptide based on the bacteriorhodopsin C helix, e.g. SEQ ID NO: 4 (ACEQNPIYWARYADWLFTTPLLLLDLALLVDADET; pHLIP variant)", "values": [
      {"measurement": "oligomeric state in states I, II and III", "setting": "[1]", "result": "monomer"},
      {"measurement": "concentration at which pHLIP exists as a monomer", "setting": "[1]; aqueous solution at neutral pH", "result": "less than 30 μg/mL and ~7.0 μM"},
      {"measurement": "circulation in the blood", "setting": "[2]", "result": "several hours"},
      {"measurement": "cellular toxicity", "setting": "[3]", "result": "no cellular toxicity"},
      {"measurement": "membrane leakage", "setting": "[3]", "result": "does not lead to membrane leakage"},
      {"measurement": "apparent pK of insertion", "setting": "[4]", "result": 6.0},
      {"measurement": "targeting of acidic tissue and tumors", "setting": "acidic tissues, tumors", "result": "can target acidic tissues"}
    ]}
  ]
}
